Data from the supplement of paper PMC7125110.
± gives the standard error. For part of these data: This sample holds only a part of the variants without activity.

B1: glmS ribozyme (parent)
chain: AUAAAAGCGCCAGAACUACAGAAAUGUAGUUGACGAGGAGGAGGUUUAUCGAAUUUUCGGCGGAUGCCUCCAAA

Assays:
Settings in all cases: with glucosamine-6-phosphate
[1] = variants of: B1; test: kcat; higher = faster cleavage; RNA array
How it was run: (§1)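 Barcoded ribozyme variants on sequenced MiSeq chips were transcribed in situ by E. coli RNA polymerase and followed at 37 °C through a hybridised Cy3 probe. Glucosamine-6-phosphate at 40 μM to 10 mM in HEPES/KCl/Mg(OAc)2 buffer was flowed in, and tiles were imaged over ~14 h. Signals were normalised to baseline and to non-cleaving reference variants, and per-tile medians were fit to one- or two-exponential decays to give kobs. Weighted Michaelis–Menten fits across concentrations gave kcat and KM.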

[2] = variants of: B1; test: KM; higher = weaker cofactor use; RNA array
How it was run: as §1

[3] = variants of: B1; test: self-cleavage kobs at 2500 uM GlcN6P; higher = faster cleavage; RNA array
How it was run: as §1

[4] = variants of: B1; test: self-cleavage kobs at 40 uM GlcN6P; higher = faster cleavage; RNA array
How it was run: as §1

[5] = variants of: B1; test: self-cleavage kobs at 160 uM GlcN6P; higher = faster cleavage; RNA array
How it was run: as §1

[6] = variants of: B1; test: self-cleavage kobs at 640 uM GlcN6P; higher = faster cleavage; RNA array
How it was run: as §1

[7] = variants of: B1; test: self-cleavage kobs at 10000 uM GlcN6P; higher = faster cleavage; RNA array
How it was run: as §1

| Variant | kcat [1] | KM [2] | self-cleavage kobs at 2500 uM GlcN6P [3] | self-cleavage kobs at 40 uM GlcN6P [4] | self-cleavage kobs at 160 uM GlcN6P [5] | self-cleavage kobs at 640 uM GlcN6P [6] | self-cleavage kobs at 10000 uM GlcN6P [7] |
| --- | --- | --- | --- | --- | --- | --- | --- |
| A15C C58U | 3.18e-05 ± 2.2e-06 s⁻¹ | 214 ± 97 µM | 2.9e-05 ± 1.1e-05 s⁻¹ | – | – | – | – |
| G37U U54G | < 1e-05 s⁻¹ | – | – | < 1e-05 s⁻¹ | < 1e-05 s⁻¹ | < 1e-05 s⁻¹ | – |
| C61A C67G | 2.3e-05 ± 5e-06 s⁻¹ | – | – | – | – | 2.63e-05 ± 1.3e-05 s⁻¹ | – |
| A6C C16U | 0.000207 ± 4.9e-05 s⁻¹ | – | 3.13e-05 ± 9e-06 s⁻¹ | – | – | – | 8.88e-05 ± 1.1e-05 s⁻¹ |
| G41U U69C | 4.52e-05 ± 7.4e-06 s⁻¹ | – | 3.82e-05 ± 1.3e-05 s⁻¹ | – | – | – | – |
| G29C U46G | 0.000315 ± 9.7e-05 s⁻¹ | – | 0.000285 ± 7.3e-05 s⁻¹ | – | – | 7.38e-05 ± 2.1e-05 s⁻¹ | 0.000234 ± 7.5e-05 s⁻¹ |
| A6C G37U | < 1e-05 s⁻¹ | – | – | < 1e-05 s⁻¹ | – | – | – |
| C11U U65A C71U | 0.000194 ± 1.4e-05 s⁻¹ | 3610 ± 470 µM | 8.15e-05 ± 1.6e-05 s⁻¹ | – | – | 2.73e-05 ± 1.3e-05 s⁻¹ | 0.000139 ± 4.3e-05 s⁻¹ |
| G13U G59U C67U | 1.71e-05 ± 6.1e-06 s⁻¹ | – | – | – | – | – | – |
| U65C C70U | 0.000844 ± 0.0001 s⁻¹ | 2930 ± 550 µM | 0.000379 ± 7.6e-05 s⁻¹ | – | 3.71e-05 ± 1e-05 s⁻¹ | 0.000169 ± 2.7e-05 s⁻¹ | 0.000647 ± 0.0001 s⁻¹ |
| U31G C34A G37U C67U | 3.45e-05 ± 1.2e-05 s⁻¹ | – | – | – | – | – | – |
| G37C C50A C58A U69A | 5.12e-05 ± 2.4e-05 s⁻¹ | – | – | – | – | 8.62e-05 ± 3.4e-05 s⁻¹ | – |
| G37A A42G | 0.00683 ± 0.0013 s⁻¹ | 3670 ± 920 µM | 0.00251 ± 0.00044 s⁻¹ | 8.75e-05 ± 1.5e-05 s⁻¹ | 0.000301 ± 8.8e-05 s⁻¹ | 0.000936 ± 0.00014 s⁻¹ | 0.00549 ± 0.00094 s⁻¹ |
| C11U G66U | 4.89e-05 ± 2.1e-05 s⁻¹ | – | 6.45e-05 ± 1e-05 s⁻¹ | < 1e-05 s⁻¹ | – | – | 2.69e-05 ± 1.2e-05 s⁻¹ |
| U45C C68U | 0.00315 ± 0.00089 s⁻¹ | 4960 ± 2100 µM | 0.000877 ± 0.00019 s⁻¹ | 3.71e-05 ± 1e-05 s⁻¹ | 8.24e-05 ± 1.9e-05 s⁻¹ | 0.000525 ± 0.00011 s⁻¹ | 0.00218 ± 0.00028 s⁻¹ |
| G29U G66A | 0.0034 ± 0.00083 s⁻¹ | 1710 ± 700 µM | 0.00168 ± 0.00038 s⁻¹ | 8.79e-05 ± 1.5e-05 s⁻¹ | 0.000716 ± 0.0002 s⁻¹ | 0.000732 ± 0.00016 s⁻¹ | 0.00316 ± 0.00039 s⁻¹ |
| G40A U56G | 0.0035 ± 0.00093 s⁻¹ | 2840 ± 950 µM | 0.00224 ± 0.00044 s⁻¹ | 6e-05 ± 1.3e-05 s⁻¹ | 0.000189 ± 3e-05 s⁻¹ | 0.000577 ± 7.7e-05 s⁻¹ | 0.00256 ± 0.00054 s⁻¹ |
| G32C C58G | 8.83e-05 ± 1.4e-05 s⁻¹ | 2580 ± 1100 µM | 4.79e-05 ± 7.8e-06 s⁻¹ | – | – | – | 6.81e-05 ± 9.4e-06 s⁻¹ |

| Variant | kcat [1] | KM [2] | self-cleavage kobs at 2500 uM GlcN6P [3] | self-cleavage kobs at 40 uM GlcN6P [4] | self-cleavage kobs at 160 uM GlcN6P [5] | self-cleavage kobs at 640 uM GlcN6P [6] | self-cleavage kobs at 10000 uM GlcN6P [7] |
| --- | --- | --- | --- | --- | --- | --- | --- |
| A12U C71U | 0.0948 ± 0.017 s⁻¹ | 1790 ± 350 µM | 0.0611 ± 0.02 s⁻¹ | 0.00207 ± 0.00018 s⁻¹ | 0.00891 ± 0.0017 s⁻¹ | 0.0214 ± 0.0049 s⁻¹ | 0.0826 ± 0.025 s⁻¹ |
| U31A C50A | 1.34e-05 ± 6.2e-07 s⁻¹ | 605 ± 190 µM | – | < 1e-05 s⁻¹ | < 1e-05 s⁻¹ | < 1e-05 s⁻¹ | – |
| A12U C70U | 0.00743 ± 0.0034 s⁻¹ | – | 0.0055 ± 0.0012 s⁻¹ | 0.00232 ± 0.00023 s⁻¹ | 0.0134 ± 0.0027 s⁻¹ | 0.0108 ± 0.0021 s⁻¹ | – |
| A33U U49G | 1.42e-05 ± 5.2e-07 s⁻¹ | 44.7 ± 12 µM | – | – | < 1e-05 s⁻¹ | < 1e-05 s⁻¹ | – |
| U55C C71A | 0.000398 ± 3.4e-05 s⁻¹ | 3820 ± 600 µM | 0.000174 ± 1.9e-05 s⁻¹ | – | – | 5.32e-05 ± 6.9e-06 s⁻¹ | 0.000283 ± 2.2e-05 s⁻¹ |
| C16G G32C | 0.000124 ± 1.6e-05 s⁻¹ | 4550 ± 1400 µM | 4.67e-05 ± 9.8e-06 s⁻¹ | – | – | – | 8.49e-05 ± 1e-05 s⁻¹ |
| U46G U65C | 4.23e-05 ± 1.3e-06 s⁻¹ | 1730 ± 260 µM | – | – | – | – | 3.6e-05 ± 7.3e-06 s⁻¹ |
| A52C C71U | 1.4e-05 ± 5.1e-07 s⁻¹ | 1650 ± 280 µM | – | < 1e-05 s⁻¹ | – | – | – |
| U31C G37U G62C A64U C70A | < 1e-05 s⁻¹ | – | – | < 1e-05 s⁻¹ | – | – | < 1e-05 s⁻¹ |
| C11U G38A G41A A42G | 1.14e-05 ± 5.7e-06 s⁻¹ | – | – | < 1e-05 s⁻¹ | < 1e-05 s⁻¹ | – | – |
| A14G U45A U49G | 0.00282 ± 0.001 s⁻¹ | 2040 ± 970 µM | 0.00136 ± 0.00063 s⁻¹ | 8.34e-05 ± 1.7e-05 s⁻¹ | 0.000143 ± 3.9e-05 s⁻¹ | 0.000745 ± 0.00011 s⁻¹ | 0.00233 ± 0.00051 s⁻¹ |
| A53C U57G | 0.000348 ± 0.00012 s⁻¹ | – | 0.000143 ± 1.9e-05 s⁻¹ | – | – | 9.98e-05 ± 1.6e-05 s⁻¹ | 0.000339 ± 4.6e-05 s⁻¹ |
| G40C U47C | 0.000914 ± 0.0001 s⁻¹ | 2020 ± 360 µM | 0.000591 ± 0.00016 s⁻¹ | – | 7.4e-05 ± 2e-05 s⁻¹ | 0.000201 ± 4.4e-05 s⁻¹ | 0.000741 ± 0.00015 s⁻¹ |
| G51U G60C | 1.97e-05 ± 5.9e-06 s⁻¹ | – | – | – | – | – | – |
| C58U C67G | 3.65e-05 ± 2.5e-06 s⁻¹ | – | 3.68e-05 ± 1.4e-05 s⁻¹ | – | – | 3.77e-05 ± 1.5e-05 s⁻¹ | 3.45e-05 ± 9.2e-06 s⁻¹ |
| G13U C61A | 1.33e-05 ± 2.2e-06 s⁻¹ | – | – | – | – | – | – |
| U47C A52U | 0.00034 ± 5.8e-05 s⁻¹ | 3930 ± 1200 µM | 0.000145 ± 2.3e-05 s⁻¹ | – | – | 3.84e-05 ± 1.6e-05 s⁻¹ | 0.000231 ± 4.7e-05 s⁻¹ |
| G41C C70U | 0.000551 ± 0.00016 s⁻¹ | – | 0.000498 ± 6.2e-05 s⁻¹ | 4.81e-05 ± 7.7e-06 s⁻¹ | 9.61e-05 ± 2.4e-05 s⁻¹ | 0.000173 ± 2.2e-05 s⁻¹ | 0.000516 ± 5.8e-05 s⁻¹ |
